According to the supplement of paper PMC9732359:
± gives the uncertainty stated by the source.

Assay: protein stability index of a GFP-peptide fusion (yeast GPS) (PSI 1-4); higher = more stable; sorted into four equal gates, so the index is relative within each strain
Procedure, shortened: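 Mid-log yeast cultures in leucine-free medium, carrying a pooled plasmid library, were sorted into four equal gates by their GFP/Cherry fluorescence ratio. Each plasmid expressed Cherry along with GFP fused upstream of a tiled 17-residue yeast protein peptide. Plasmids recovered from each gate were PCR-amplified and Illumina-sequenced, with reads assigned to strains by barcodes. The protein stability index was obtained by summing each gate's read frequency weighted by its gate number.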

Sequence	protein stability index (doa10∆)	protein stability index (pdr5∆)	protein stability index (san1∆)	protein stability index (ubr1∆)
SLNLQYVNYEISTAKAW [YML103C/NUP188]	2.6 ± 0.055	2.93 ± 0.082	2.55 ± 0.074	2.69 ± 0.058
DIYFKLKKLEKEYELLT [RPT3]	2.74 ± 0.074	2.51 ± 0.081	2.29 ± 0.14	1.98 ± 0.057
QDSTSENVKIINYLLTL [RPN2]	3.42 ± 0.074	3.1 ± 0.079	3.16 ± 0.071	2.9 ± 0.12
DYMYENGKLTSANERLF [YML031W/NDC1]	3.37 ± 0.17	3.28 ± 0.11	3.1 ± 0.11	3.23 ± 0.095
SESGSKLNVDQFISSRQ [POP1]	3.27 ± 0.058	3.37 ± 0.063	3.29 ± 0.055	3.21 ± 0.068
LPLYEKNTLLERLKQLT [SWP82]	2.71 ± 0.16	2.87 ± 0.088	2.73 ± 0.1	2.87 ± 0.22
VKGETRIQNRVKLGLNS [PRP8]	2.08 ± 0.16	2.7 ± 0.15	2.23 ± 0.23	2.58 ± 0.15
KPYKQVKQIAPAELEGL [FAS2]	2.36 ± 0.061	2.14 ± 0.055	2.47 ± 0.083	1.9 ± 0.053
ENKTKKDNDKNLKFLKN [SRB4]	3.42 ± 0.064	3.4 ± 0.079	3.28 ± 0.048	3.42 ± 0.057
DSRTTTGAYIANRVTDK [PRE3]	2.99 ± 0.13	3.29 ± 0.11	2.89 ± 0.11	3.08 ± 0.082
PQAVTITSIMDDLALPY [ITC1]	2.85 ± 0.077	2.98 ± 0.062	2.72 ± 0.059	3.02 ± 0.046
KRRVTNLEFNYTKPYPN [SMC2]	3.12 ± 0.071	2.88 ± 0.14	2.75 ± 0.16	2.81 ± 0.12
GNNKDLKNTMQYLTNFS [RPB4]	3.16 ± 0.08	3.02 ± 0.072	3.02 ± 0.075	3.13 ± 0.061
DTSAEKDQIQAGKWFDP [SIR4]	3.51 ± 0.12	3.57 ± 0.14	3.38 ± 0.12	3.38 ± 0.18
YLHQNWVLHRDLKPANI [SSN3]	2.23 ± 0.12	2.74 ± 0.13	2.72 ± 0.23	2.38 ± 0.14
DTSYKIDGKTVSYKDYS [SMC1]	2.6 ± 0.049	2.79 ± 0.042	2.58 ± 0.046	2.95 ± 0.04
FLNDVIPTTKNLRLLVE [DLS1]	3.28 ± 0.091	3.16 ± 0.11	2.88 ± 0.081	3.47 ± 0.087
LKLCVQELEKRMPMDFK [PRE1]	3.15 ± 0.19	3.34 ± 0.099	3.18 ± 0.054	3.37 ± 0.085
KSNTIPVTSIPSTNKKL [GAL11]	2.67 ± 0.076	2.87 ± 0.073	2.9 ± 0.044	2.96 ± 0.057
MFANMKVLGVKDMSPIL [LRP1]	1.84 ± 0.069	1.52 ± 0.046	1.41 ± 0.072	1.46 ± 0.047

Sequence	protein stability index (doa10∆)	protein stability index (pdr5∆)	protein stability index (san1∆)	protein stability index (ubr1∆)
HPPDFKRMLLSLSEFAR [SNF2]	1.32 ± 0.038	1.33 ± 0.036	1.26 ± 0.064	1.27 ± 0.023
IAFASNYGIVELDPECQ [RRP43]	2.34 ± 0.083	2.68 ± 0.055	2.54 ± 0.059	2.53 ± 0.08
WLLHNGFSTGIGDTIAD [RPO21]	3.11 ± 0.16	3.24 ± 0.17	3.26 ± 0.093	3.06 ± 0.15
RNQEKKMEKKKSSSLSL [SNM1]	3.53 ± 0.22	3.5 ± 0.16	2.68 ± 0.22	2.98 ± 0.1
NVLDYFAESPFFDKTSN [MED6]	3.46 ± 0.068	2.99 ± 0.085	2.87 ± 0.062	3.04 ± 0.051
AKGLVAYHQKYVDEQSK [RPS16A]	2.03 ± 0.085	2.12 ± 0.056	2.52 ± 0.089	1.11 ± 0.034
LLERGRLRKRVTIIPLD [SMC2]	2.25 ± 0.06	2.71 ± 0.059	2.26 ± 0.059	2.12 ± 0.057
HLHDAVFVNTGLQNVRK [SWP82]	2.99 ± 0.14	2.84 ± 0.076	2.77 ± 0.1	2.73 ± 0.088
MKTQRFVSNMGFDIQKS [SIR4]	2.63 ± 0.069	2.24 ± 0.058	2.5 ± 0.083	2.01 ± 0.04
KFIALCEQQPSQEREFS [SIN4]	2.78 ± 0.055	2.82 ± 0.063	2.67 ± 0.088	2.79 ± 0.056
VCGIIVKQEDMPFNDQG [RET1]	3.06 ± 0.16	2.87 ± 0.24	2.46 ± 0.26	2.49 ± 0.21
NTSESLLVDIQKYNQIQ [SMC2]	1.71 ± 0.07	1.84 ± 0.066	1.66 ± 0.15	1.68 ± 0.048
AKSMAFLKEVLSDLSSP [YML103C/NUP188]	2.97 ± 0.079	3.1 ± 0.079	2.79 ± 0.11	2.95 ± 0.065
YSEHLKPYDINVVLVTN [DIS3]	1.77 ± 0.071	2.98 ± 0.094	2.86 ± 0.066	2.47 ± 0.055
LYKLNDKIAVAVAGLTA [PRE9]	2.29 ± 0.056	2.14 ± 0.052	2.18 ± 0.095	2.31 ± 0.043
TSFDRTKKTITPMGGFV [RPL3]	3.04 ± 0.12	3.03 ± 0.12	2.79 ± 0.089	3.21 ± 0.24
MDEMDNVIRSLEQEYRL [RMP1]	1.81 ± 0.064	1.21 ± 0.025	1.71 ± 0.15	2.05 ± 0.072
KRLLYTRRFVNVTLVNG [RPS30A]	2.03 ± 0.051	1.44 ± 0.04	1.62 ± 0.099	1.91 ± 0.059
ATDEESVRLQRFYQLGV [CSN12]	3.13 ± 0.16	3.13 ± 0.15	2.92 ± 0.11	3.13 ± 0.099
IDEVFSWYLNTFDGIRM [GRR1]	2.42 ± 0.049	1.83 ± 0.039	2.14 ± 0.062	1.88 ± 0.039
